Results published in US20080160574A1 (KOREA ADVANCED INSTITUTE OF SCIENCE AND TECHNOLOGY KAIST, published 2008).

Key:
[1] = target: Tie2 receptor on human umbilical vein endothelial cells (HUVECs) (human, UniProt Q02763 23-1124); assay: cell-based or functional assay
[2] = target: T1, soluble Tie2-Fc (fusion of the ectodomain of Tie-2 receptor and the Fc domain of human IgG1, R&D Inc) (human, UniProt Q02763 23-748); assay: protein-A pull-down with sTie2-Fc, anti-FLAG Western blot
T1 construct: Bought (R&D Inc) for the Biacore assay; human Tie2 would be UniProt Q02763; also called sTie2-Fc; T2; not shown: Fc domain of human IgG1 and any linker
T1 sequence (Q02763 23-748 limits assumed): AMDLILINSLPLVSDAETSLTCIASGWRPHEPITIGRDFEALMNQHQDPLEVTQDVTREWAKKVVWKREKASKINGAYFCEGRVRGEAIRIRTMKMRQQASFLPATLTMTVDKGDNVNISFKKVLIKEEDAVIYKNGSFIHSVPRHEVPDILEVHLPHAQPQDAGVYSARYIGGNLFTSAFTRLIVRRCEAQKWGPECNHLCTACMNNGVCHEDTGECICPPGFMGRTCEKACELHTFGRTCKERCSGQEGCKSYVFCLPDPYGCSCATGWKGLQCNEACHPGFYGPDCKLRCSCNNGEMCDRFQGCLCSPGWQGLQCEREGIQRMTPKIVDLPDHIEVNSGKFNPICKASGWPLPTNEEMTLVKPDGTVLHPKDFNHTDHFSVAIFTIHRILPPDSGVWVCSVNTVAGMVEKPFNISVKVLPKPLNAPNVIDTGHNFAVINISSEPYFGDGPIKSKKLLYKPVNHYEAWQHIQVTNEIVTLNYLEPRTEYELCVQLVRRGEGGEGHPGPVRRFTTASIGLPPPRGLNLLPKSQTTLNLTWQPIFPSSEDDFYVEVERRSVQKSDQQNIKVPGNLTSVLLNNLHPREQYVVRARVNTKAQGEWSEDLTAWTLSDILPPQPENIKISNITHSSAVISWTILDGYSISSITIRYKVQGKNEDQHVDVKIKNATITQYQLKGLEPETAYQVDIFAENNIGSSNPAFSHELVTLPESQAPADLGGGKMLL
Protocol: Twenty nanograms of each protein was incubated with 100 ng of sTie1-Fc or sTie2-Fc for […], and then, protein-A conjugated agarose beads were added. The precipitate was separated by 10% SDS-PAGE, and electro-blotted on to nitrocellulose membranes. The nitrocellulose membranes were Western blotted with anti-FLAG M1 antibody, washed, and incubated with horseradish peroxidase-conjugated secondary antibody. Signals were visualized by chemiluminescent detection according to the manufacturer's protocol (Amersham Pharmacia Biotech) and chemiluminescence scanner (LAS-1000, Fuji Film, Tokyo). CB, control buffer; PC, positive control of same amount of each recombinant protein without binding.
Twenty nanograms of each recombinant chimeric-Ang1 protein and 100 ng of soluble Tie1-Fc or soluble Tie2-Fc were incubated in 500 μl Tris-buffer solution (50 mM Tris, 100 mM NaCl, pH 7.4) containing 0.02% TritonX-100 at 4° C. for 2 hr. Then, 20 μl of protein-A agarose beads (Oncogene) was added and incubated for another 1 hr at 4° C. The protein-A conjugated samples were washed twice with 1 ml of Tris-buffer containing 0.02% TritonX-100. The samples were eluted with sample buffer, and heat-denatured. The samples were further separated by 10% SDS-PAGE, and electro-blotted on to nitrocellulose membranes, and Western blotted with anti-FLAG M1 antibody to detect the bound recombinant chimeric-Ang1, and further washed and incubated with horseradish peroxidase-conjugated secondary antibody. Signal was visualized by chemiluminescent detection according to the manufacturer's protocol (Amersham Pharmacia Biotech) using chemiluminescence scanner (LAS-1000, Fuji Film, Tokyo). Approximately 75%, 20%, 95% or 100% of native Ang1, GCN4-Ang1/FD, CMP-Ang1/FD, and COMP-Ang1/FD, respectively, bound to sTie2-Fc. In contrast, none of them bound to sTie1-Fc.

[3] = target: T1, soluble Tie2-Fc (fusion of the …); assay: Biacore, Tie2-Fc immobilized on CM5 chip, Fc reference subtracted
Protocol: (§1) FIGS. 10A-10D show in vitro binding assay between recombinant native Ang1, GCN4-Ang1/FD, CMP-Ang1/FD, or COMP-Ang1/FD and immobilized soluble Tie2-Fc using Biacore assay. Each recombinant protein was passed over a Biacore sensor chip that had extracellular domain of Tie2-Fc and Fc protein covalently coupled to it, followed by dissembling in absence of the recombinant proteins. Concentrations of the recombinant proteins are shown in each panel. Specificity of binding was assessed by subtracting Fc protein binding value from Tie2-Fc binding value during the measurement. Binding of the sensor chip is provided in resonance units (RUs).
(§2) Alternatively, to determine whether the COS-7 cell-derived recombinant proteins of native Ang1, GCN4/CC-Ang1/FD, CMP/CC-Ang1/FD and COMP/CC-Ang1/FD could bind to Tie-2 receptor, standard Biacore analysis was performed by BIA2000 (BIAcore, Inc.). Briefly, 600 ng of Tie-2-Fc receptor protein (R&D Inc), which is a fusion protein composed of the ectodomain of Tie-2 receptor and Fc domain of human IgG1, was immobilized on a Biacore chip (Sensor Chip CM5). As a control, 600 ng of Fc protein, which had only the Fc domain of human IgG1, was also immobilized on the same chip. The binding affinity was obtained by subtracting the response value using Fc protein from the values obtained using the Tie-2-Fc protein.

[4] = target: T1, soluble Tie2-Fc (fusion of the …); assay: Biacore, Tie2-Fc immobilized on CM5 chip
Protocol: as §1, §2

[5] = target: T1, soluble Tie2-Fc (fusion of the …); assay: binding assay with soluble Tie2 (details not given)

Sequence of Tie2 receptor on human umbilical vein endothelial cells (HUVECs) (Q02763 23-1124): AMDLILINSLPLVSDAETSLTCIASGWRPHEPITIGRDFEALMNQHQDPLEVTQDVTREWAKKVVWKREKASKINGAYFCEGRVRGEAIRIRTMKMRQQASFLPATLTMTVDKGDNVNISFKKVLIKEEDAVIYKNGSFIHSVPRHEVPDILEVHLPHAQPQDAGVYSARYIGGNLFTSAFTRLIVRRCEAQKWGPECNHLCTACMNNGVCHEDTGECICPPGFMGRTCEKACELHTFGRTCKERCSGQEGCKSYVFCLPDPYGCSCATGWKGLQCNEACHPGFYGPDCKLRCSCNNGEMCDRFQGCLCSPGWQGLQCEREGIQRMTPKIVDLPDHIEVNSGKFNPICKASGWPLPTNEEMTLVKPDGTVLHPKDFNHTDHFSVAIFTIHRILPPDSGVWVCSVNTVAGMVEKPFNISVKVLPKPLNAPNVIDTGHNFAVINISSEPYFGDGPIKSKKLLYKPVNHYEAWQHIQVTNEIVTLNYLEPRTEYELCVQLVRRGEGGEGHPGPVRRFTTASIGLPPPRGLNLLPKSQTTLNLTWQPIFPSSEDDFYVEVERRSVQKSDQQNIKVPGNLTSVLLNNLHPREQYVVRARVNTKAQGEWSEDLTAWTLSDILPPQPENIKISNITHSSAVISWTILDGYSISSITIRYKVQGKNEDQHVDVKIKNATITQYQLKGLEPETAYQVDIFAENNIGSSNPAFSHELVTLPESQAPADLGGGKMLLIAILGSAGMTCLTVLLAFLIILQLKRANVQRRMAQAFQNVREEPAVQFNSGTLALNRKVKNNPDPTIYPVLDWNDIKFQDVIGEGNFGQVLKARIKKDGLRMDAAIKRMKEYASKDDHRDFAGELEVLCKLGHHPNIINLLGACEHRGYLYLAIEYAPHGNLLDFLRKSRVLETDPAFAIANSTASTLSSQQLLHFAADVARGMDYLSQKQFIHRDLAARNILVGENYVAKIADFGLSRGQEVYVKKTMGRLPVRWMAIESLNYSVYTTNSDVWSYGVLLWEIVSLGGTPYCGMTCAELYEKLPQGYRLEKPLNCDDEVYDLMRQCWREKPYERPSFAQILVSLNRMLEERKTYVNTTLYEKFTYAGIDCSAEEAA

Row | Binder | Tie2 phosphorylation (ratio of phospho-Tie2 to Tie2, control buffer = 1) [1] | percent of input protein bound [2] | Kd [3] | concentration at which binding was saturated [4] | binding result [5]
1 | COMP/CC-Ang1/FD (coiled-coil domain of COMP - fibrinogen domain of Ang1) (ligand, The end, 312, is worked out from the stated lengths: 16 signal + 8 FLAG + 3 + 45 COMP + 2 + 238 Ang1 Leu261-498; ~180 kDa and ~250 kDa were observed under non-reducing conditions; also called COMP-Ang1/FD; CO/CC-A1/FD) DYKDDDDKGILDLAPQMLRELQETNAALQDVRELLRQQVKEITFLKNTVMECDACGGSLVNLCTKEGVLLKGGKREEEKPFRDCADVYQAGFNKSGIYTIYINNMPEPKKVFCNMDVNGGGWTVIQHREDGSLDFQRGWKEYKMGFGNPSGEYWLGNEFIFAIYSQRQYMLRIELMDWEGNRAYSQYDRFHIGNEKQNYRLYLKGHTGTAGKQSSLILHGADFSTKDADNDNCMCKCALMLTGGWWFDACGPSNLNGMFYTAGQNHGKLNGIKWHYFKGPSYSLRSTTMMIRPLDF | ~8.8 fold | ~100% | 20.5 nM | > 125 nM | –
2 | GCN4/CC-Ang1/FD (coiled-coil domain of GCN4 - fibrinogen domain of Ang1) (ligand, The end, 298, is worked out from bases 1-897 including the stop codon; ~80 kDa under non-reducing conditions; also called GCN4-Ang1/FD; G/CC-A1/FD) DYKDDDDKGILMKQLEDKVEELLSKNYHLENEVARLKKLVGEGSLVNLCTKEGVLLKGGKREEEKPFRDCADVYQAGFNKSGIYTIYINNMPEPKKVFCNMDVNGGGWTVIQHREDGSLDFQRGWKEYKMGFGNPSGEYWLGNEFIFAIYSQRQYMLRIELMDWEGNRAYSQYDRFHIGNEKQNYRLYLKGHTGYAGKQSSLILHGADFSTKDADNDNCMCKCALMLTGGWWFDACGPSNLNGMFYTAGQNHGKLNGIKWHYFKGPSYSLRSTTMMIRPLDF | – | ~20% | 158 nM | ~30 nM | –

Next, values leading:

Row | Tie2 phosphorylation (ratio of phospho-Tie2 to Tie2, control buffer = 1) [1] | percent of input protein bound [2] | Kd [3] | concentration at which binding was saturated [4] | binding result [5] | Binder
3 | ~3.6 fold | ~75% | 7.5 nM | > 125 nM | – | native Ang1 (recombinant FLAG-tagged human angiopoietin-1 with C-terminal Myc and His tags) (ligand, Multimer of variable sizes under non-reducing conditions; Produced in COS-7 cells; also called nAng1) DYKDDDDKLRYNRIQHGQCAYTFILPEHDGNCRESTTDQYNTNALQRDAPHVEPDFSSQKLQHLEHVMENYTQWLQKLENYIVENMKSEMAQIQQNAVQNHTATMLEIGTSLLSQTAEQTRKLTDVETQVLNQTSRLEIQLLENSLSTYKLEKQLLQQTNEILKIHEKNSLLEHKILEMEGKHKEELDTLKEEKENLQGLVTRQTYIIQELEKQLNRATTNNSVLQKQQLELMDTVHNLVNLCTKEGVLLKGGKREEEKPFRDCADVYQAGFNKSGIYTIYINNMPEPKKVFCNMDVNGGGWTVIQHREDGSLDFQRGWKEYKMGFGNPSGEYWLGNEFIFAITSQRQYMLRIELMDWEGNRAYSQYDRFHIGNEKQNYRLYLKGHTGTAGKQSSLILHGADFSTKDADNDNCMCKCALMLTGGWWFDACGPSNLNGMFYTAGQNHGKLNGIKWHYFKGPSYSLRSTTMMIRPLDFDIQHSGGRSSLEGPRFEQKLISEEDLNMHTGHHHHHH
4 | – | – | – | – | no binding | Ang1/FD (truncated Ang1 that contains only the fibrinogen-like domain, amino acids 284-498) (ligand, The range 284-498 is counted on Ang1, not on the entry; also called monomeric Ang1/FD; recombinant Ang1/FD) RDCADVYQAGFNKSGIYTIYINNMPEPKKVFCNMDVNGGGWTVIQHREDGSLDFQRGWKEYKMGFGNPSGEYWLGNEFIFAIYSQRQYMLRIELMWEGNRAYSQYDRFHIGNEKQNYRLYLKGHTGYAGKQSSLILHGADFSTKDADNDNCMCKCALMLTGGWWFDACGPSNLNGMFYTAGQNHGKLNGIKWHYFKGPSYSLRSTTMMIRPLDF
5 | ~4 fold | ~95% | 67 nM | ~30 nM | – | CMP/CC-Ang1/FD (coiled-coil domain of CMP - fibrinogen domain of Ang1) (ligand, The end, 310, is worked out from bases 1-933 including the stop codon; ~140 kDa and ~180 kDa were observed under non-reducing conditions; also called CMP-Ang1/FD; C/CC-A1/FD) YKDDDDKGILDEDPCECKSIVKFQTKVEELINTLQQKLEAVAKRIEALENKIIGSLVNLCTKEGVLLKGGKREEEKPFRDCADVYQAGFNKSGIYTIYINNMPEPKKVFCNMDVNGGGWTVIQHREDGSLDFQRGWKEYKMGFGNPSGEYWLGNEFIFAIYSQRQYMLRIELMDWEGNRAYSQYDRFHIGNEKQNYRLYLKGHTGTAGKQSSLILHGADFSTKDADNDNCMCKCALMLTGGWWFDACGPSNLNGMFYTAGQNHGKLNGIKWHYFKGPSYSLRSTTMMIRPLDF
